Biological target: T1, human plasminogen (human, UniProt P00747 20-810, limits assumed)
T1 construct: also called Plg
Assay: ELISA, plate-coated human plasminogen, His-tagged VK and VH peptides bridged and detected by rabbit anti-His tag IgG and HRP anti-rabbit IgG, A450

T1 sequence (P00747 20-810 limits assumed): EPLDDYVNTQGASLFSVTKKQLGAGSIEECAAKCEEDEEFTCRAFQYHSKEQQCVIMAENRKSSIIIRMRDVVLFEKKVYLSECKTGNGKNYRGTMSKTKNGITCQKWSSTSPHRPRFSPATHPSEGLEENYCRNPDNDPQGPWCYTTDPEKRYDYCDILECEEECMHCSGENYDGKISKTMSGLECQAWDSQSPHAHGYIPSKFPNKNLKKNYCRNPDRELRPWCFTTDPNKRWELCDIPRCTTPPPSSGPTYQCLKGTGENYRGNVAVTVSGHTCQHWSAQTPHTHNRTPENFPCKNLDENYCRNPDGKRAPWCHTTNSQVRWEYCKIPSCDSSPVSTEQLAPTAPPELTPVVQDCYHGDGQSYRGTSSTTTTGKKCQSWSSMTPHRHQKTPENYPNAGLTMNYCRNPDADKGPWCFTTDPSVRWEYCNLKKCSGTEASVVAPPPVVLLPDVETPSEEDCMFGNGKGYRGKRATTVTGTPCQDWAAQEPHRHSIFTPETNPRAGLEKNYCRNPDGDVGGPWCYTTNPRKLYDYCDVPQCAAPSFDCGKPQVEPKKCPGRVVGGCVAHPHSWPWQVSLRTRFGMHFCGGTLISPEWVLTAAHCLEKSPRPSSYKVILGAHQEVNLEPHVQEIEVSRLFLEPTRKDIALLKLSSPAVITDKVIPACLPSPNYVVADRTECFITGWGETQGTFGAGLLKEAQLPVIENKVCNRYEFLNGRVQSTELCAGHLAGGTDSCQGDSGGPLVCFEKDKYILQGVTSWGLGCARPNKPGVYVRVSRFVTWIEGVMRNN

binding result: binds
B1: VKc4+VHc1 (His-tagged VKc4 domain peptide combined with His-tagged VHc1 domain peptide) (other)
VL: RSDILMTQSPSSMSVSLGDTVSITCHASQGISSNIGWLQQKPGKSFKGLIYHGTNLEDGVPSRFSGSGSGADYSLTITSLESEDFADYYCVQYAQFPWTFGGGTKLEIKDIPWQGLNDIFEAQKIEWHGSHHHHHH
VH: RSEVQLQQSGAELVKPGASVKLSCTASGFNIKDYYMHWVKQRTEQGLEWIGRIDPEDGETKYAPKFQGKATITADTSSNTAYLQLSSLTSEDTAVYYCAPLLGREDYWGQGTTLTVSSDIPWQGLNDIFEAQKIEWHGSHHHHHH
notes: Two separate His-tagged mouse variable domain peptides made in E. coli (crude lysis supernatant), not covalently linked; in the ELISA they are bridged by polyclonal rabbit anti-His tag IgG; also called Kc4Hc1
